In assay [1] the target is endogenous mouse SIRPα of wildtype BALB/c mice (mouse (BALB/c)) (UniProt P97797). In words: flow cytometry; CD47 protein on peritoneal cavity cells of wildtype BALB/c mice, detected with anti-CD47 human antibody and AF647-Anti-hIgG. A general note: In flow cytometry, cells or beads pass a laser one at a time.
In assay [2] the target is endogenous mouse SIRPα of wildtype C57BL/6 mice (NP_031573.2) (mouse (C57BL/6)) (UniProt P97797). The assay can be described thus: flow cytometry; CD47 protein on peritoneal cavity cells of wildtype C57BL/6 mice, detected with anti-CD47 human antibody and AF647-Anti-hIgG.

Data on one substance can be found in patent US20190373867A1.

Sequence of UniProt P97797 (P97797 other isoform, or with tags, fused parts or gaps): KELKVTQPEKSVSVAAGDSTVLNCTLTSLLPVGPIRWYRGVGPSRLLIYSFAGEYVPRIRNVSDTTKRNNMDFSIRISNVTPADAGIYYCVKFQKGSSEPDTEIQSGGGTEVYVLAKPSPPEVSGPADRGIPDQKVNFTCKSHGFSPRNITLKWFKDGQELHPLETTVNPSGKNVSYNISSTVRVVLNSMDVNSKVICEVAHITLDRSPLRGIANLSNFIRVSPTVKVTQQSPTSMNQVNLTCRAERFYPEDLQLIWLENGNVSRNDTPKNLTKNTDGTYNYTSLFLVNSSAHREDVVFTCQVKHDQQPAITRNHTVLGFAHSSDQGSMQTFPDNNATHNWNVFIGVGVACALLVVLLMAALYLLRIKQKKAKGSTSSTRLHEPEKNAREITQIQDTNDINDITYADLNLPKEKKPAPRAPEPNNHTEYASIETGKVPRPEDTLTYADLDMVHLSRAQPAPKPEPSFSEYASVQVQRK

Turning to “mouse CD47 proteins (added to peritoneal cavity cells, Example 16) (ligand)”, the geometric mean of flow cytometry signal in assay [1] and in assay [2] was 100 throughout.
